Drawing on US20170165373A1, this text covers MFI for one substance.

The test addresses human BCMA (huBCMA), full length, on cells (human) (UniProt Q02223). In words: FACS, H929 cells, negative control.

Chain of human BCMA (huBCMA), full length, on cells (human) (Q02223 whole entry N81S): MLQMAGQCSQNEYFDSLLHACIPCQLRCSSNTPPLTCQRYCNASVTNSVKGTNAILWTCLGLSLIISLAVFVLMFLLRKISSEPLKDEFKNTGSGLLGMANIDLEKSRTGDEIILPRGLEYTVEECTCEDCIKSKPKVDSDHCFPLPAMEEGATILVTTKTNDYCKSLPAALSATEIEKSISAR

Regarding hu IgG1 (antibody), the MFI stood at 8.
